# Assay results as given in US7045617 (MOUNT SINAI SCHOOL OF MEDICINE, dated 2006).
# Side-chain parts run from the residue outwards. [ ]: non-standard residue; d: D form. Phe(4-NH2) = Nc1ccc(C[C@H](N)C(=O)O)cc1; Dap = NC[C@H](N)C(=O)O
# Tests used:
# [1] = biological target: protein tyrosine kinase Csk (UniProt P41240 1-450, limits assumed); experiment: Csk kinase inhibition assay
# [2] = biological target: T1, recombinant mouse protein kinase A (catalytic subunit) (mouse, UniProt P05132 2-351); experiment: PKA radiometric kinase assay with biotinylated kemptide, Dixon plot, versus ATP
# Procedure: (§1) Reagents from Calbiochem's Protein Kinase A kit were used to perform the inhibition assays and recombinant mouse PKA (catalytic subunit) was also purchased from Calbiochem (enzyme concentration was established by Bradford analysis). […] These were further diluted into water to produce a range of inhibitor solutions between 51 μM and 507 nM. An 11.25 μL aliquot from each of these solutions was pre-incubated with 7.5 μL of a 1.75 nM PKA enzyme solution (750 ug/uL bovine serum albumin) for 10 minutes at 30° C. after which 12.5 μL of pre-incubation mix was added to 12.5 μL of reaction mix (30 μM cold ATP, 50 μM biotinylated kemptide substrate, 0.04 uCi/μL γP-32 ATP, 80 mM Tris-HCl, 10 mM MgCl_2, pH 7.5) to initiate the enzymatic reaction. […] The columns were placed in scintillation vials and radioactivity was measured using a scintillation counter.
# [3] = biological target: T1, recombinant mouse protein kinase A …; experiment: PKA radiometric kinase assay, Dixon plot, adjusted to zero substrate
# Procedure: as §1
# protein tyrosine kinase Csk, sequence (P41240 whole entry): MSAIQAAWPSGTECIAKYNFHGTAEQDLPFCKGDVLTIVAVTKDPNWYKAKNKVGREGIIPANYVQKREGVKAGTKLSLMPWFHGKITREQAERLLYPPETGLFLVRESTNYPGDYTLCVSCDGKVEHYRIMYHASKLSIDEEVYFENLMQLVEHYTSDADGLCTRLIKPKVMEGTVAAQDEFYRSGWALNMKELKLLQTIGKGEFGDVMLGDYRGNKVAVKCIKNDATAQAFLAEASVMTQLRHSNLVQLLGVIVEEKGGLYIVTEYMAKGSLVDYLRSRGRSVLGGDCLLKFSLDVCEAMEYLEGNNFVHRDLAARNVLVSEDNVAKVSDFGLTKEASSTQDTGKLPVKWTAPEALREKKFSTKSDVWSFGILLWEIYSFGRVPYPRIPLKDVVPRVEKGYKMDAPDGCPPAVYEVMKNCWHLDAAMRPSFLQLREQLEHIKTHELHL
Binder,Ki [1],Ki [2],Ki [3]
Ac-KKKLPATGD[Phe(4-NH2)]([Ac-ATPγS])MNMSPVGD-OH (also called bisubstrate analog 2) [Compound 2 (peptide-ATP bisubstrate analog; IRS727 peptide linked to ATPγS through an acetyl linker)],~40 µM,,
Ac-LRRA[Dap]([Ac-ATPγS])LG-OH [kemptide-ATPγS conjugate],,9.56 µM,4.6 µM
